From PMC9104551

Tested on: XylR (ROK family transcriptional regulator) (Paenibacillus polymyxa ATCC842)
Assay: EMSA
Conditions: Chemiluminescent EMSA Kit (Beyotime), biotinylated PCR probes; XylR 0.02-0.1 g/L (protein:probe 20.9-104.4) for BST/DTE; buffer, pH, temperature not stated

Going from -2T (A/T to T/A outside site) to BST (full predicted site), the binding signal rises from 65.4 % bound to 70 % bound.

First: BST 1G (A/T to G/C)
Second: -1T (A/T to T/A outside site)
The binding signal of the first is lower: 18.8 % bound for the first, 61.3 % bound for the second.

First: BST 17A (G71A)
Second: BST 17T (G71T)
The binding signal of the first is lower: 1.9 % bound for the first, 52.1 % bound for the second.

First: -1G (A/T to G/C outside site)
Second: -1C (A/T to C/G outside site)
The binding signal of the first is higher: 64.5 % bound for the first, 50.8 % bound for the second.

First: BST 1T (A/T to T/A)
Second: BST 17C (G71C)
The binding signal of the first is lower: 30 % bound for the first, 63.5 % bound for the second.

First: BST 1C (A/T to C/G)
Second: -2C (A/T to C/G outside site)
The binding signal of the first is lower: 19.8 % bound for the first, 57.6 % bound for the second.

With -2G (A/T to G/C outside site) the binding signal was 60.8 % bound.
